Data: paper PMC8200818, “SPECT/CT Imaging, Biodistribution and Radiation Dosimetry of a ^177Lu-DOTA-Integrin αvβ6 Cystine Knot Peptide in a Pancreatic Cancer Xenograft Model” (Frontiers in Oncology, 2021)

Experiment: Dosimetric calculation for human adult male (OLINDA/EXM 1.1)
Text: Assuming that the organ-to-whole-body activity concentration ratio in mice would equal that in humans, the injected activity concentration (%IA/g) acquired from the mouse biodistribution study was transformed to human whole-organ percentage of injected activity per gram of tissue (%IA/g) human. The mouse uptake data were extrapolated to humans by relative scaling of mass and time using the following two equations,
(1) (%IA/organ)human=[(%IA/g)mouse×Mmouse(kg)×[m(g)/M(kg)]human
(2) thuman=tanimal[Mhuman/Manimal]^0.25
where %IA/g is percentage of injected activity per gram of tissue, %IA/organ is percentage of injected activity per organ; m is organ mass of mouse or human, M is body mass of mouse or human; t is time. The absorbed doses per activity were calculated by using the extrapolated human source organ residence times as input in the OLINDA/EXM 1.1 software (Organ Level Internal Dose Assessment Code, Vanderbilt University, Nashville, USA), with the reference adult male ([25]).

[1] = adult male human, extrapolated from mouse biodistribution

SMILES: CC[C@H](C)[C@@H]1NC(=O)[C@@H](NC(=O)CNC(=O)CN2CCN(CC(=O)O)CCN(CC(=O)O)CCN(CC(=O)O)CC2)CSSC[C@@H]2NC(=O)[C@H](C)NC(=O)CNC(=O)[C@@H]3CCCN3C(=O)[C@@H]3CSSC[C@@H](C(=O)NCC(=O)O)NC(=O)[C@H](Cc4ccc(O)cc4)NC(=O)CNC(=O)[C@H](CC(N)=O)NC(=O)CNC(=O)[C@H](CCCNC(=N)N)NC(=O)[C@H](CSSC[C@H](NC(=O)[C@H](CCCNC(=N)N)NC(=O)[C@H](Cc4ccccc4)NC(=O)[C@H](CC(C)C)NC(=O)[C@H](CC(C)C)NC(=O)[C@H]([C@@H](C)O)NC(=O)CNC(=O)[C@H](CC(C)C)NC(=O)[C@H](CC(=O)O)NC(=O)[C@H]([C@@H](C)O)NC(=O)[C@H](CCCNC(=N)N)NC(=O)CNC(=O)[C@H](CC(N)=O)NC(=O)[C@H](CC(C)C)NC1=O)C(=O)N[C@@H](CCCNC(=N)N)C(=O)N[C@@H](CCCNC(=N)N)C(=O)N[C@@H](CC(=O)O)C(=O)N[C@@H](CO)C(=O)N[C@@H](CC(=O)O)C(=O)N3)NC(=O)[C@H]([C@@H](C)CC)NC2=O [^177Lu-DOTA-integrin αvβ6 knottin, metal not drawn]
- Expected absorbed dose, Liver [1]: 9.34E-04 mSv/MBq
- Expected absorbed dose, Thymus [1]: 5.08E-06 rem/mCi
- Dose-limiting organ (human projection, preliminary): The absorbed doses in the kidney propose it as the dose-limiting organ
